The chains are these.
B1: Ankyrin repeat and SAM domain-containing protein 6, residues 774 to 836; numbered along this chain, Q68DC2 (parent)
chain: DEDELTGILKKLSLEKYQPIFEEQEVDMEAFLTLTDGDLKELGIKTDGSRQQILAAISELNAG

± gives the uncertainty stated by the source.

Variants of B1 are the subject of the data set. The data set can be described thus: abundance fitness (aPCA) (normalised: wild type 0, dead -1); higher = more abundant; growth selection in yeast, the domain comes from the species named. As to conditions: Homo sapiens.
DEDELTGILKKLSLEKYQPIFEEQEVDMEAFLTLTDGDLKELGIKIDGSRQQILAAISELNAG [T46I]: the abundance fitness was -0.019 ± 0.085.
For DEDELTGILKKLSLEKYQPIFEEQEVDMEAFLTLTDGDLKELGIKVDGSRQQILAAISELNAG [T46V] the value was -0.138 ± 0.053; for DEDELTGILKKLSLEKYQPIFEEQEVDMEAFLTLTDGDLKELGIKPDGSRQQILAAISELNAG [T46P], -0.048 ± 0.063.
For DEDELTGILKKLSLEKYQPIFEEQEVDMEAFLTLTDGDLKELGIKGDGSRQQILAAISELNAG [T46G] the value was -0.011 ± 0.074; for DEDELTGILKKLSLEKYQPIFEEQEVDMEAFLTLTDGDLKELGIKLDGSRQQILAAISELNAG [T46L], -0.116 ± 0.044.
On to DEDELTGILKKLSLEKYQPIFEEQEVDMEAFLTLTDGDLKELGIKHDGSRQQILAAISELNAG [T46H], for which the abundance fitness was determined as 0.151 ± 0.065.
In the case of DEDELTGILKKLSLEKYQPIFEEQEVDMEAFLTLTDGDLKELGIKCDGSRQQILAAISELNAG [T46C], the abundance fitness amounted to 0.016 ± 0.074.
Next, DEDELTGILKKLSLEKYQPIFEEQEVDMEAFLTLTDGDLKELGIKDDGSRQQILAAISELNAG [T46D]: 0.118 ± 0.093; DEDELTGILKKLSLEKYQPIFEEQEVDMEAFLTLTDGDLKELGIKFDGSRQQILAAISELNAG [T46F]: -0.361 ± 0.075.
As to DEDELTGILKKLSLEKYQPIFEEQEVDMEAFLTLTDGDLKELGIKYDGSRQQILAAISELNAG [T46Y], the abundance fitness was -0.197 ± 0.067.
Next, DEDELTGILKKLSLEKYQPIFEEQEVDMEAFLTLTDGDLKELGIKWDGSRQQILAAISELNAG [T46W]: -0.521 ± 0.086; DEDELTGILKKLSLEKYQPIFEEQEVDMEAFLTLTDGDLKELGIKNDGSRQQILAAISELNAG [T46N]: -0.159 ± 0.091; DEDELTGILKKLSLEKYQPIFEEQEVDMEAFLTLTDGDLKELGIKQDGSRQQILAAISELNAG [T46Q]: -0.201 ± 0.07.
Next, DEDELTGILKKLSLEKYQPIFEEQEVDMEAFLTLTDGDLKELGIKTVGSRQQILAAISELNAG [D47V]: -0.049 ± 0.049.
Next, DEDELTGILKKLSLEKYQPIFEEQEVDMEAFLTLTDGDLKELGIKTFGSRQQILAAISELNAG [D47F]: -0.14 ± 0.058; DEDELTGILKKLSLEKYQPIFEEQEVDMEAFLTLTDGDLKELGIKTRGSRQQILAAISELNAG [D47R]: -0.149 ± 0.033; DEDELTGILKKLSLEKYQPIFEEQEVDMEAFLTLTDGDLKELGIKTIGSRQQILAAISELNAG [D47I]: -0.058 ± 0.087.
On to DEDELTGILKKLSLEKYQPIFEEQEVDMEAFLTLTDGDLKELGIKTMGSRQQILAAISELNAG [D47M], for which the abundance fitness was -0.138 ± 0.071.
For DEDELTGILKKLSLEKYQPIFEEQEVDMEAFLTLTDGDLKELGIKTKGSRQQILAAISELNAG [D47K] the value was -0.126 ± 0.085.
On to DEDELTGILKKLSLEKYQPIFEEQEVDMEAFLTLTDGDLKELGIKTWGSRQQILAAISELNAG [D47W], for which the abundance fitness is -0.309 ± 0.07.
Next, DEDELTGILKKLSLEKYQPIFEEQEVDMEAFLTLTDGDLKELGIKTYGSRQQILAAISELNAG [D47Y]: -0.114 ± 0.083.
Next, DEDELTGILKKLSLEKYQPIFEEQEVDMEAFLTLTDGDLKELGIKTEGSRQQILAAISELNAG [D47E]: 0.056 ± 0.054.
For DEDELTGILKKLSLEKYQPIFEEQEVDMEAFLTLTDGDLKELGIKTHGSRQQILAAISELNAG [D47H] the value was 0.042 ± 0.074; for DEDELTGILKKLSLEKYQPIFEEQEVDMEAFLTLTDGDLKELGIKTNGSRQQILAAISELNAG [D47N], -0.126 ± 0.067.
DEDELTGILKKLSLEKYQPIFEEQEVDMEAFLTLTDGDLKELGIKTQGSRQQILAAISELNAG [D47Q]: the abundance fitness is -0.054 ± 0.054.
For DEDELTGILKKLSLEKYQPIFEEQEVDMEAFLTLTDGDLKELGIKTLGSRQQILAAISELNAG [D47L] the value was -0.089 ± 0.042.
With DEDELTGILKKLSLEKYQPIFEEQEVDMEAFLTLTDGDLKELGIKTGGSRQQILAAISELNAG [D47G], the abundance fitness is -0.158 ± 0.053.
For DEDELTGILKKLSLEKYQPIFEEQEVDMEAFLTLTDGDLKELGIKTSGSRQQILAAISELNAG [D47S] the value was -0.114 ± 0.044.
As to DEDELTGILKKLSLEKYQPIFEEQEVDMEAFLTLTDGDLKELGIKTTGSRQQILAAISELNAG [D47T], the abundance fitness was -0.029 ± 0.054.
For DEDELTGILKKLSLEKYQPIFEEQEVDMEAFLTLTDGDLKELGIKTCGSRQQILAAISELNAG [D47C] the value was -0.128 ± 0.049; for DEDELTGILKKLSLEKYQPIFEEQEVDMEAFLTLTDGDLKELGIKTAGSRQQILAAISELNAG [D47A], -0.061 ± 0.045; for DEDELTGILKKLSLEKYQPIFEEQEVDMEAFLTLTDGDLKELGIKTDASRQQILAAISELNAG [G48A], -0.047 ± 0.044.
Next, DEDELTGILKKLSLEKYQPIFEEQEVDMEAFLTLTDGDLKELGIKTDYSRQQILAAISELNAG [G48Y]: -0.321 ± 0.12.
Next, DEDELTGILKKLSLEKYQPIFEEQEVDMEAFLTLTDGDLKELGIKTDSSRQQILAAISELNAG [G48S]: 0.007 ± 0.048.
For the variant DEDELTGILKKLSLEKYQPIFEEQEVDMEAFLTLTDGDLKELGIKTDLSRQQILAAISELNAG [G48L], the abundance fitness was -0.042 ± 0.046.
For DEDELTGILKKLSLEKYQPIFEEQEVDMEAFLTLTDGDLKELGIKTDMSRQQILAAISELNAG [G48M] the value was -0.113 ± 0.07; for DEDELTGILKKLSLEKYQPIFEEQEVDMEAFLTLTDGDLKELGIKTDWSRQQILAAISELNAG [G48W], -0.424 ± 0.043.
For DEDELTGILKKLSLEKYQPIFEEQEVDMEAFLTLTDGDLKELGIKTDQSRQQILAAISELNAG [G48Q] the value was -0.039 ± 0.053; for DEDELTGILKKLSLEKYQPIFEEQEVDMEAFLTLTDGDLKELGIKTDTSRQQILAAISELNAG [G48T], 0.149 ± 0.058.
Next, DEDELTGILKKLSLEKYQPIFEEQEVDMEAFLTLTDGDLKELGIKTDESRQQILAAISELNAG [G48E]: 0.107 ± 0.054; DEDELTGILKKLSLEKYQPIFEEQEVDMEAFLTLTDGDLKELGIKTDDSRQQILAAISELNAG [G48D]: -0.016 ± 0.058; DEDELTGILKKLSLEKYQPIFEEQEVDMEAFLTLTDGDLKELGIKTDKSRQQILAAISELNAG [G48K]: -0.131 ± 0.088.
On to DEDELTGILKKLSLEKYQPIFEEQEVDMEAFLTLTDGDLKELGIKTDFSRQQILAAISELNAG [G48F], for which the abundance fitness is -0.339 ± 0.082.

For the origin of these results see the Human Domainome abundance scans (Beltran et al. 2025).
